Laboratory results taken from US20230070886A1 (NOVAVAX, published 2023).

Molecular target: His-tagged human angiotensin-converting enzyme 2 precursor (hACE2) (human, UniProt Q9BYF1 18-740)
Experiment: bio-layer interferometry

His-tagged human angiotensin-converting enzyme 2 precursor (hACE2), sequence (Q9BYF1 18-740 limits assumed): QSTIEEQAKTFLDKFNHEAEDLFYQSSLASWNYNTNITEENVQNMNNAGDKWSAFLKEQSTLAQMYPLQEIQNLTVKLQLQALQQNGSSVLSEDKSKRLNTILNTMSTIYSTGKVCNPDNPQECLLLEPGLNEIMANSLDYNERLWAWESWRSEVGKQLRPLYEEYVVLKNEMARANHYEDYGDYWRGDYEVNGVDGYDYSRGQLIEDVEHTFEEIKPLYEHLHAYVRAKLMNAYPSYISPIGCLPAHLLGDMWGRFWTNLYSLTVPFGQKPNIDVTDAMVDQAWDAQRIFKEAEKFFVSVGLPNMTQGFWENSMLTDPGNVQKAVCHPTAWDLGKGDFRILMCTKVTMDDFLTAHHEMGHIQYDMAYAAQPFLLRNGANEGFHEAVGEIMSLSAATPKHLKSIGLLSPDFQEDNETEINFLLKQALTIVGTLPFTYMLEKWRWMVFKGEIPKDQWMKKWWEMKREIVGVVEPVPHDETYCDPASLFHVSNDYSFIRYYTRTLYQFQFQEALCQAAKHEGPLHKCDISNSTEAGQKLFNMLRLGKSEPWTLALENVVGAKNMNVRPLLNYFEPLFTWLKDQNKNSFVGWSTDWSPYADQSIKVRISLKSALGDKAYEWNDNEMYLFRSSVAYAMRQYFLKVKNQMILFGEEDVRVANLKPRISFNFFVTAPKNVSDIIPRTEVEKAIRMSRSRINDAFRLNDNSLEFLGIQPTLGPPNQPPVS

B1: MERS S protein (other)
chain: YVDVGPDSVKSACIEVDIQQTFFDKTWPRPIDVSKADGIIYPQGRTYSNITITYQGLFPYQGDHGDMYVYSAGHATGTTPQKLFVANYSQDVKQFANGFVVRIGAAANSTGTVIISPSTSATIRKIYPAFMLGSSVGNFSDGKMGRFFNHTLVLLPDGCGTLLRAFYCILEPRSGNHCPAGNSYTSFATYHTPATDCSDGNYNRNASLNSFKEYFNLRNCTFMYTYNITEDEILEWFGITQTAQGVHLFSSRYVDLYGGNMFQFATLPVYDTIKYYSIIPHSIRSIQSDRKAWAAFYVYKLQPLTFLLDFSVDGYIRRAIDCGFNDLSQLHCSYESFDVESGVYSVSSFEAKPSGSVVEQAEGVECDFSPLLSGTPPQVYNFKRLVFTNCNYNLTKLLSLFSVNDFTCSQISPAAIASNCYSSLILDYFSYPLSMKSDLSVSSAGPISQFNYKQSFSNPTCLILATVPHNLTTITKPLKYSYINKCSRFLSDDRTEVPQLVNANQYSPCVSIVPSTVWEDGDYYRKQLSPLEGGGWLVASGSTVAMTEQLQMGFGITVQYGTDTNSVCPKLEFANDTKIASQLGNCVEYSLYGVSGRGVFQNCTAVGVRQQRFVYDAYQNLVGYYSDDGNYYCLRACVSVPVSVIYDKETKTHATLFGSVACEHISSTMSQYSRSTRSMLKRRDSTYGPLQTPVGCVLGLVNSSLFVEDCKLPLGQSLCALPDTPSTLTPRSVRSVPGEMRLASIAFNHPIQVDQLNSSYFKLSIPTNFSFGVTQEYIQTTIQKVTVDCKQYVCNGFQKCEQLLREYGQFCSKINQALHGANLRQDDSVRNLFASVKSSQSSPIIPGFGGDFNLTLLEPVSISTGSRSARSAIEDLLFDKVTIADPGYMQGYDDCMQQGPASARDLICAQYVAGYKVLPPLMDVNMEAAYTSSLLGSIAGVGWTAGLSSFAAIPFAQSIFYRLNGVGITQQVLSENQKLIANKFNQALGAMQTGFTTTNEAFHKVQDAVNNNAQALSKLASELSNTFGAISASIGDIIQRLDVLEQDAQIDRLINGRLTTLNAFVAQQLVRSESAALSAQLAKDKVNECVKAQSKRSGFCGQGTHIVSFVVNAPNGLYFMHVGYYPSNHIEVVSAYGLCDAANPTNCIAPVNGYFIKTNNTRIVDEWSYTGSSFYAPEPITSLNTKYVAPQVTYQNISTNLPPPLLGNSTGIDFQDELDEFFKNVSTSIPNFGSLTQINTTLLDLTYEMLSLQQVVKALNESYIDLKELGNYTYYNKWPWYIWLGFIAGLVALALCVFFILCCTGCGTNCMGKLKCNRCCDRYEEYDLEPHKVHVH
B1: no binding.
